How the values were obtained:
JARID2 1-530 (hJARID2) = test: BLI; details: BLI: 10 mM HEPES pH 7.4, 150 mM NaCl, 3 mM EDTA, 0.005% Tween-20, 1 mg/ml BSA, 25 C, pull-down buffer not given in the material
[1] = molecular target: H2AK119u1(I44A) mononucleosomes (Xenopus | not stated) (UniProt P0CG48); test: BLI; biotinylated mononucleosomes immobilised on streptavidin biosensors; Jarid2 1-530 at 2–25 μM; 25 °C; 10 mM HEPES pH 7.4, 150 mM NaCl, 3 mM EDTA, 0.005% Tween-20, 1 mg/ml BSA; kon and koff from kobs versus concentration; n=3
[2] = molecular target: H2AK119u1-modified mononucleosomes (Xenopus | not stated); test: as above
[3] = molecular target: unmodified mononucleosomes (Xenopus); test: as above

## H2AK119u1 mononucleosome (601, 147 bp)
JARID2 1-530 (hJARID2); kon 576 s-1 (so in the source), H2A K119C crosslinked to His-ubiquitin G67C (so in the source) by 1,3-dichloroacetone
  Kd: 2.8 µM

## H2AK119u1(I44A) mononucleosome (601, 147 bp)
JARID2 1-530 (hJARID2); H2A K119C crosslinked to His-ubiquitin I44A;G67C (so in the source)
  Kd: 5.1 µM

## hJARID2 1–530 (from UniProt Q92833 1-530) (domain or fragment)
[1]
  Kd: 5.1 µM
[2]
  Kd: 2.8 µM
[3]
  Kd: 5 µM

## unmodified mononucleosome (601, 147 bp)
JARID2 1-530 (hJARID2); kon 313 s-1 (so in the source)
  Kd: 5 µM

Reference: article PMC5133711
